Experimental findings from paper PMC6468627 are described below.

pKd: −log10 of the molar value.

Data set [1] addresses T1, EpCAM (native, on primary lung cancer cells) (Homo sapiens (patient NSCLC tumor cells)) (UniProt P16422).
T1 sequence: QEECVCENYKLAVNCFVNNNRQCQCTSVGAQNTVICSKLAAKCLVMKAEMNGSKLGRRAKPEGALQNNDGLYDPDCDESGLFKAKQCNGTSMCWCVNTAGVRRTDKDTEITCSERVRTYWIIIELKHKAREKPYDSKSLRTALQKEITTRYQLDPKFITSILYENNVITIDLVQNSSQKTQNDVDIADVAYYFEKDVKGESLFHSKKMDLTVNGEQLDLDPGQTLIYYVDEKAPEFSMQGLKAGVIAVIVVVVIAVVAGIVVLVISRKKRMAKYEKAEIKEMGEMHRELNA
The experiment in a line: competition (flow cytometry). As to conditions: DPBS, 25 °C, 30 min; cells (3×10^5) pre-incubated with 1 ng/uL salmon sperm DNA; DNA pools/library heated to 95 °C 5 min then on ice 10 min; pH not stated. On the technique in general: Flow cytometry measures light scatter and fluorescence of single cells or particles in a stream.

The target in data set [2] is T1, EpCAM (native, on primary lung cancer cells) (Homo sapiens (patient NSCLC tumor cells)). In words: flow cytometry (cell binding). As to conditions: apparent Kd on whole primary lung cancer cells; 1-300 nM aptamer; DPBS, 25 °C, 30 min; cells (3×10^5) pre-incubated with 1 ng/uL salmon sperm DNA; DNA pools/library heated to 95 °C 5 min then on ice 10 min; pH not stated.

By pKd is commonly meant −log10 of the Kd, conventionally taken in molar units. In data set [1], “CTCCTCTGACTGTAACCACGACACGCACAAATGTCAGTGTACCGCACTCGCACATTCTTAGCATAGGTAGTCCAGAAGCC [EPCAM-APT-01 (ECM_01)]” yielded a binding signal (% displaced by antibody) of 15. The pKd in data set [2] was 7.60.
As for “CTCCTCTGACTGTAACCACGGTGCGCGTACCACCATGTGTACACACTGCATGTTTGGTTAGCATAGGTAGTCCAGAAGCC [EPCAM-APT-02 (ECM_02)]”, in data set [1], the binding signal (% of cells releasing aptamer) came out at 18. Besides, the pKd in data set [2] is 7.82.
